These results are taken from US20170267768A1 (University of California, published 2017).

The experiment concerns the target T1, human EphA2 on OVCAR-3 and U-251 cells (human, UniProt P29317 24-976).
T1 construct: whole, on cells; also called EphA2 receptors
The experiment is described as follows: CLIA: scFv-decorated fluorescent NTA(Ni) liposomes on EphA2-expressing cells, FACS. Here is the method:
To test the anti-EphA2 activity of these variant scFvs, the binding and internalization of liposomes externally decorated with these Abs was assayed on cell lines expressing EphA2. A rapid high-throughput Chelated Ligand-induced Internalization Assay (CLIA) (Nielsen et al., BMC immunology, 2006, 7:24) was used to screen anti-EphA2-scFv-targeted liposomes for binding and internalization assessment. Two cell lines that express high levels of EphA2 receptors, OVCAR-3 and U-251, were tested, as well as a murine EphA2-expressing mouse cell line, CT-26 (to test whether cross-reactivity to murine EphA2 was retained by the engineered scFvs). Via nickel-binding by each scFv's c-terminal His6 tag, the scFvs were bound to fluorescently labeled liposomes comprising an NTA(Ni) conjugated lipid (Dil5-NTA liposomes).
Dil5-NTA liposomes were prepared as follows. The NTA conjugated lipid, DOD-Tri-NTA, was synthesized as described in Huang et al., Bioconjugate chemistry, 2006, vol. 17, p. 1592-1600. Hydrogenated soy phosphatidylcholine (HSPC), cholesterol, methoxy-PEG(2000)-distearoylphosphatidylethanolamine (PEG-DSPE), DOD-tri-NTA, and a fluorescent lipid dye, Dil5, (ThermoFisher® Invitrogen® Molecular Probes™, cat. # D12370) were combined in a chloroform solution at the molar ratio of 100:66.7:5:0.5:0.3 respectively and the solution evaporated under vacuum to dryness forming a lipid film. The film was hydrated in HEPES-buffered physiological saline (“HBS-6.5”—5 mM HEPES, 144 mM NaCl pH 6.5) at 68° C., the resulting lipid suspension was subjected to several cycles of freezing (dry ice-acetone) and thawing (68C), and extruded through two stacked polycarbonate membranes (Whatman Nuclepore, USA) with the pore size of 200 nm (6 times) and 100 nm (10 times) using Lipex™ thermobarrel extruder (Northern Lipids, Canada). This protocol typically produces unilamellar vesicles with the z-average size of 100-110 nm and polydispersity index less than 0.1. The extruded liposomes were chilled to room temperature, purified by gel-chromatography on a Sephadex® G-75 (GE Healthcare) column eluted with HBS-6.5, and then sterilized by passage through a 0.2-μm filter. The concentration of liposomal phospholipid was then determined after acid digestion using spectrophotometric phosphomolybdate method.

Substitutions are numbered along the chain they refer to.

T1 sequence (P29317 24-976): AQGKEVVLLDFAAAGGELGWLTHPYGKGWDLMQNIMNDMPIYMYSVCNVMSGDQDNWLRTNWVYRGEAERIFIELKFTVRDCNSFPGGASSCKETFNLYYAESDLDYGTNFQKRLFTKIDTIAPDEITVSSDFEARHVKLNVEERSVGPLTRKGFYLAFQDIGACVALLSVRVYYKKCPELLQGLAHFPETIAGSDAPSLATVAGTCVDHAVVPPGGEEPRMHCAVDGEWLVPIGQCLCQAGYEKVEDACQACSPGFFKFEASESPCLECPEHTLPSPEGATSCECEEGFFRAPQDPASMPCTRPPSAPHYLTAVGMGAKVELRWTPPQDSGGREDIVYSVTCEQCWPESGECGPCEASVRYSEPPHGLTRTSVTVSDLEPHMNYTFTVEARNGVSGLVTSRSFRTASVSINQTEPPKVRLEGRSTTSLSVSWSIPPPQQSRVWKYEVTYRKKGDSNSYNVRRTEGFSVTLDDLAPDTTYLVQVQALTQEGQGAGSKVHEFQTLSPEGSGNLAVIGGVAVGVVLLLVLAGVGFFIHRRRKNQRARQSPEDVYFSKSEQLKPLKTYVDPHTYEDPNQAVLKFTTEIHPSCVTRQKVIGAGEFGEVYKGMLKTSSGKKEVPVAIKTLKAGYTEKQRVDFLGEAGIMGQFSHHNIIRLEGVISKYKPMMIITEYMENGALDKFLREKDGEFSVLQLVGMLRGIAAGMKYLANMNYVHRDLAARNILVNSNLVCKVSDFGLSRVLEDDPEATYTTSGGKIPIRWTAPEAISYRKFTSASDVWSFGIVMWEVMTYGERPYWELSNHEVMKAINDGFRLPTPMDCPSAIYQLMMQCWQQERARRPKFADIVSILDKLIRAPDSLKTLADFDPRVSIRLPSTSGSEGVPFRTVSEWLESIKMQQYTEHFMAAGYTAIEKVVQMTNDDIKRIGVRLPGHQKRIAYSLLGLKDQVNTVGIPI

B1: scFv-19 (scFv)
scFv: QVQLVQSGGGLVQPGGSLRLSCAASGFTFSSYAMHWVRQAPGKGLEWVSVISPPGHNTYYADSVKGRFTISRDNSKNTLYLQMNSLRAEDTAVYYCARASVGATGPFDIWGQGTLVTVSSASTGGGGSGGGGSGGGGSGGGGSSSELTQPPSVSVAPGQTVTITCQGDSLRSYYASWYQQKPGTAPKLLIYGENNRPSGVPDRFSGSSSGTSASLTITGAQAEDEADYYCNSRDSSGTHLTVFGGGTKLTVLG
As for B1, the binding result is reported as “binds”.

B2: scFv-14 (scFv)
scFv: B1 scFv with S49T, P54A, H56P, T58K
Turning to B2, the binding result is reported as “binds”.

B3: scFv-6 (scFv)
scFv: B1 scFv with P53N, P54N, T58K
As for B3, the binding result is reported as “binds”.

B4: scFv-13 (scFv)
scFv: B1 scFv with S49T, P54T, H56A
Turning to B4, the binding result is “binds”.

B5: scFv-10 (scFv)
scFv: B1 scFv with V50A
For B5, the binding result is on record as “binds”.

B6: scFv-22 (scFv)
scFv: B1 scFv with S49T, P54G, H56P, T58K
On to B6, for which the binding result is “binds”.

B7: scFv-21 (scFv)
scFv: B1 scFv with S49T, P53R, P54H, H56N, T58K
For the molecule B7, the binding result is listed as “binds”.

B8: scFv-7 (scFv)
scFv: B1 scFv with P54A, H56P
On to B8, for which the binding result was “binds”.

B9: scFv-11 (scFv)
scFv: B1 scFv with S49A, P53H, P54H, H56S
Consider B9, for which the binding result was “binds”.

B10: scFv-5 (scFv)
scFv: B1 scFv with P53R, P54R, H56D, T58K
On to B10, for which the binding result is given as “binds”.

B11: scFv-20 (scFv)
scFv: B1 scFv with S49T, P53H, P54D, H56T
B11: the binding result is “binds”.

B12: scFv-2 (scFv)
scFv: B1 scFv with P54A, H56R, T58K
Take B12: the binding result is given as “binds”.

B13: scFv-9 (scFv)
scFv: B1 scFv with S49T, P54N
For B13, the binding result is “binds”.

B14: scFv-18 (scFv)
scFv: B1 scFv with P54A, H56T
Take B14: the binding result is “binds”.

B15: scFv-15 (scFv)
scFv: B1 scFv with P54H, H56S, T58K
As for B15, the binding result is recorded as “binds”.

B16: scFv-1 (scFv)
scFv: B1 scFv with P54A, H56N
B16: the binding result was “binds”.

B17: scFv-8 (scFv)
scFv: B1 scFv with S49T, P54S
For B17, the binding result is on record as “binds”.

B18: scFv-16 (scFv)
scFv: B1 scFv with P53N, P54N
For the molecule B18, the binding result was “binds”.

B19: scFv-17 (scFv)
scFv: B1 scFv with S49T, H56S, T58K
With B19, the binding result is reported as “binds”.

B20: scFv-4 (scFv)
scFv: B1 scFv with S49T, P54H, H56R, T58K
Turning to B20, the binding result was “binds”.
